Tests used:
[1] = target: HLA-A2.1 molecules expressed by 174CEM.T2 cells (human); assay: T2 HLA-A2.1 stabilisation, flow cytometry (BB7.2), peptide 200 ug/ml
[2] = target: HLA-A1 molecules isolated from the EBV transformed cell line Steinlin (human)
[3] = target: HLA-A3.2 molecules isolated from the EBV transformed cell line GM3107 (human)
[4] = target: HLA-A11.2 molecules isolated from the cell line BVR (human)
[5] = target: HLA-A24 molecules isolated from the EBV transformed cell line KT3 (human)
[6] = target: HLA-A2.1 molecules isolated from the EBV transformed cell line JY (human)

Substance	binding ratio to standard [3]	binding ratio to standard [4]	further results
[…] (residues 25-33 of HPV16 protein E6) (peptide; other documents disagree on this pair)	–	–	FI (Fluorescence Index) [1]: 0.6; MF (mean fluorescence) [1]: 108
[…] (residues 82-90 of HPV16 protein E7) (peptide; other documents disagree on this pair)	–	–	FI (Fluorescence Index) [1]: 0.8; MF (mean fluorescence) [1]: 119
… (residues 19-27 of HPV16 protein E7), synthesized with alanine instead of cysteine (peptide; other documents disagree on this pair)	–	–	binding ratio to standard [2]: 0.023
… (residues 33-41 of HPV16 protein E6), synthesized with alanine instead of cysteine (peptide; other documents disagree on this pair)	1.5	6.7	–
… (residues 37-45 of HPV16 protein E6) with alanine instead of cysteine (peptide; other documents disagree on this pair)	0.032	0.045	–
… (residues 38-46 of HPV16 protein E6), synthesized with alanine instead of cysteine (peptide; other documents disagree on this pair)	0.0012	0.0022	binding ratio to standard [5]: 0.0011
… (residues 51-59 of HPV16 protein E7), synthesized with alanine instead of cysteine (peptide; other documents disagree on this pair)	0.026	0.001	–
… (residues 52-60 of HPV16 protein E6), synthesized with alanine instead of cysteine (peptide; other documents disagree on this pair)	–	–	binding ratio to standard [6]: 0.37
… (residues 52-60 of HPV16 protein E7), synthesized with alanine instead of cysteine (peptide; other documents disagree on this pair)	0.0067	0.006	–
… (residues 58-66 of HPV16 protein E7), synthesized with alanine instead of cysteine (peptide; other documents disagree on this pair)	0.0016	0.011	–
… (residues 60-68 of HPV16 protein E7), synthesized with alanine instead of cysteine (peptide; other documents disagree on this pair)	0.0012	–	–
… (residues 66-74 of HPV16 protein E6), synthesized with alanine instead of cysteine (peptide; other documents disagree on this pair)	–	–	binding ratio to standard [5]: 0.0055
… (residues 67-75 of HPV16 protein E6), synthesized with alanine instead of cysteine (peptide; other documents disagree on this pair)	0.0012	0.0074	–
… (residues 68-76 of HPV16 protein E6), synthesized with alanine instead of cysteine (peptide; other documents disagree on this pair)	0.0056	0.0037	–
… (residues 69-77 of HPV16 protein E6), synthesized with alanine instead of cysteine (peptide; other documents disagree on this pair)	0.0025	0.003	–
… (residues 72-80 of HPV16 protein E6), synthesized with alanine instead of cysteine (peptide; other documents disagree on this pair)	–	–	binding ratio to standard [5]: 0.11

Substance	binding ratio to standard [3]	binding ratio to standard [4]	further results
… (residues 79-87 of HPV16 protein E6) with alanine instead of cysteine (peptide; other documents disagree on this pair)	0.0044	0.0076	–
… (residues 80-88 of HPV16 protein E6), synthesized with alanine instead of cysteine (peptide; other documents disagree on this pair)	0.0064	0.43	–
… (residues 82-90 of HPV16 protein E6), synthesized with alanine instead of cysteine (peptide; other documents disagree on this pair)	–	–	binding ratio to standard [5]: 0.046
… (residues 84-92 of HPV16 protein E6), synthesized with alanine instead of cysteine (peptide; other documents disagree on this pair)	0.0036	–	–
… (residues 85-93 of HPV16 protein E6), synthesized with alanine instead of cysteine (peptide; other documents disagree on this pair)	–	–	binding ratio to standard [5]: 0.0037
… (residues 86-94 of HPV16 protein E7) (peptide)	–	–	FI (Fluorescence Index) [1]: 2.5; MF (mean fluorescence) [1]: 228
… (residues 87-95 of HPV16 protein E6), synthesized with alanine instead of cysteine (peptide; other documents disagree on this pair)	–	–	binding ratio to standard [5]: 0.12
… (residues 90-98 of HPV16 protein E7), synthesized with alanine instead of cysteine (peptide; other documents disagree on this pair)	–	0.0012	–
… (residues 97-105 of HPV16 protein E6), synthesized with alanine instead of cysteine (peptide; other documents disagree on this pair)	0.0045	–	–
… (residues 107-115 of HPV16 protein E6), synthesized with alanine instead of cysteine (peptide; other documents disagree on this pair)	3.7	0.012	–
… (residues 139-147 of HPV16 protein E6), synthesized with alanine instead of cysteine (peptide; other documents disagree on this pair)	–	–	binding ratio to standard [2]: 0.02
… (residues 140-148 of HPV16 protein E6), synthesized with alanine instead of cysteine (peptide; other documents disagree on this pair)	–	0.0012	–
… (residues 143-151 of HPV16 protein E6), synthesized with alanine instead of cysteine (peptide; other documents disagree on this pair)	0.18	0.0084	–
… (residues 144-152 of HPV16 protein E6), synthesized with alanine instead of cysteine (peptide; other documents disagree on this pair)	–	–	binding ratio to standard [2]: 0.019
… (residues 145-153 of HPV16 protein E6), synthesized with alanine instead of cysteine (peptide; other documents disagree on this pair)	0.02	–	–
… (residues 146-154 of HPV16 protein E6), synthesized with alanine instead of cysteine (peptide; other documents disagree on this pair)	0.002	–	–

From patent US7364741
